Tests used:
Assay in all cases: cryo-EM structure; single particle analysis of extended AlgoCIS particles assembled in A. machipongonensis and purified whole, in buffer B (20 mM Tris pH 7.5, 150 mM NaCl); cap 2.5 Å, extended sheath-tube 2.4 Å, baseplate 2.7-2.9 Å, whole particle 4.4 Å
[1] = biological target: Alg8 (central spike protein of AlgoCIS) (Algoriphagus machipongonensis PR1 (endogenous in A. machipongonensis))
[2] = biological target: Alg11 (baseplate wedge protein of AlgoCIS, forms the spike cage) (Algoriphagus machipongonensis PR1 (endogenous in A. machipongonensis))
[3] = biological target: Alg6 (plug protein of AlgoCIS) (Algoriphagus machipongonensis PR1 (endogenous in A. machipongonensis))
[4] = biological target: Alg16B (cap adaptor protein of AlgoCIS) (Algoriphagus machipongonensis PR1 (endogenous in A. machipongonensis))
[5] = biological target: Alg16A (cap protein of AlgoCIS) (Algoriphagus machipongonensis PR1 (endogenous in A. machipongonensis))
[6] = biological target: Alg1 (inner tube protein of AlgoCIS) (Algoriphagus machipongonensis PR1 (endogenous in A. machipongonensis))

Substance: Alg8 (central spike protein of AlgoCIS) (natural protein)
- stoichiometry N [1]: 3

Substance: Alg11 (baseplate wedge protein of AlgoCIS, forms the spike cage) (natural protein)
- stoichiometry N [2]: 6

Substance: Alg6 (plug protein of AlgoCIS) (natural protein)
- stoichiometry N [3]: 3

Substance: Alg16B (cap adaptor protein of AlgoCIS) (natural protein)
- stoichiometry N [4]: 6

Substance: Alg16A (cap protein of AlgoCIS) (natural protein)
- stoichiometry N [5]: 6

Substance: Alg1 (inner tube protein of AlgoCIS) (natural protein)
- stoichiometry N [6]: 6

From paper PMC8894135
